Data reported in US20210403565A1 (BIOATLA, published 2021).

What was measured:
[1] = target: T1, recombinant human CTLA4 extracellular domain (human, UniProt P16410 36-161); test: ELISA, wells coated with human CTLA4, assay pH 6.0; lot 6978 in His buffer, T0; unit from the axis Log[ng/mL]
T1 construct: extracellular domain; also called huCTLA-4
T1 sequence (looked up): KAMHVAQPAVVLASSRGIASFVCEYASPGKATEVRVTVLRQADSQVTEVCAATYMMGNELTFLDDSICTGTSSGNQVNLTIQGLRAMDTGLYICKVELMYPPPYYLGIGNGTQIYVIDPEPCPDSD
Description: (§1) Both ELISA and FACS analysis were used to measure the binding activity. […] The amount of bound antibodies was quantified using anti-human IgG antibody conjugated to HRP. The absorbance at 450 nm in each measurement was proportional to the amount of antibodies bound. […] EC50 value (in ng/mL) for binding to human CTLA4 was determined by absorbance at 450 nm against antibody concentration with Prism variable slope of four-parameter dose-response curve, which was calculated using the nonlinear fit (variable slope, four parameters) model built into GraphPad Prism software (version 7.03). The buffers tested included His buffer (His), Tris buffer (Tris), Glutamine buffer (Glu) and no buffer.

[2] = target: T1, recombinant human CTLA4 extracellular …; test: ELISA, wells coated with human CTLA4, assay pH 6.0; lot 6978 in Glu buffer, T2W; unit from the axis Log[ng/mL]
Description: as §1

[3] = target: T2, human CTLA4 expressed on the cell surface of CHO cells (human, UniProt P16410 36-223); test: FACS, cells expressing human CTLA4, assay pH 6.0, MFI; lot 6978 in His buffer, T2W; unit from the axis Log[ng/mL]
T2 construct: whole, on cells; also called CHO-huCTLA4; huCTLA4
T2 sequence (looked up): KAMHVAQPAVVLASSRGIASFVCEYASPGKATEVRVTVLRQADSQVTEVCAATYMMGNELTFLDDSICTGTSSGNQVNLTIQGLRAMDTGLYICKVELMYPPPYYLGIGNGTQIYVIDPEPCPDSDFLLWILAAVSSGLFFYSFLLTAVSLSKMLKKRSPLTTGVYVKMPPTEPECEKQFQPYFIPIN
Description: (§2) The amount of bound antibodies was quantified using anti-human IgG antibody conjugated to fluorophores. The MFI in each reaction was proportional to the amount of antibodies bound. The EC₅₀ value (in ng/mL) for binding to human CTLA4 on cells was determined by MFI of the singlets population against antibody concentration with a Prism variable slope of four-parameter dose-response curve, which was calculated using the nonlinear fit (variable slope, four parameters) model built into GraphPad Prism software (version 7.03).

[4] = target: T2, human CTLA4 expressed on the cell …; test: FACS, cells expressing human CTLA4, assay pH 7.4, MFI; lot 6978 in His buffer, T2W; unit from the axis Log[ng/mL]
Description: as §2

[5] = target: T2, human CTLA4 expressed on the cell …; test: FACS, cells expressing human CTLA4, assay pH 7.4, MFI; lot 6978 in Tris buffer, T2W; unit from the axis Log[ng/mL]
Description: as §2

[6] = target: T1, recombinant human CTLA4 extracellular …; test: ELISA, wells coated with human CTLA4, assay pH 7.4; lot 6978 in His buffer, T2W; curve still rising at log 3 (OD450 below 0.2), no plateau; unit from the axis Log[ng/mL]
Description: as §1

[7] = target: T3, human CTLA4 on CTLA4 Jurkat effector cells (Promega CTLA4 Blockade Assay) (human, UniProt P16410 36-223); test: cell-based or functional assay
T3 sequence (looked up): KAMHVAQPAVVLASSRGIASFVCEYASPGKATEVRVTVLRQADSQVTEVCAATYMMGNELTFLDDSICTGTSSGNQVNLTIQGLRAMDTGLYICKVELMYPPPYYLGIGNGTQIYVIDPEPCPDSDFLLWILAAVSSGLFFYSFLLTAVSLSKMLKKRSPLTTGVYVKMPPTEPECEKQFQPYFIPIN

[8] = target: T1, recombinant human CTLA4 extracellular …; test: ELISA, immobilised huCTLA-4, table head pH 7.0 (text: pH 7.4), mean +/- SD
[9] = target: T1, recombinant human CTLA4 extracellular …; test: ELISA, wells coated with human CTLA4, assay pH 6.0; lot 6972 in His buffer, T2W; unit from the axis Log[ng/mL]
Description: as §1

[10] = target: T2, human CTLA4 expressed on the cell …; test: FACS, cells expressing human CTLA4, assay pH 6.0, MFI; lot 6972 in Tris buffer, T0; unit from the axis Log[ng/mL]
Description: as §2

[11] = target: T1, recombinant human CTLA4 extracellular …; test: ELISA, wells coated with human CTLA4, assay pH 7.4; lot 6972 without test buffer; same column repeated in FIG. 9B and FIG. 9C; unit from the axis Log[ng/mL]
Description: as §1

[12] = target: T4, cynomolgus CTLA4 expressed on the cell surface of CHO cells (cynomolgus, UniProt G7PL88 36-223); test: FACS, CHO cells expressing cynomolgus CTLA4 (CHO-cynoCTLA-4), pH 7.4, MFI; curve still rising at log 5 (about 600000 against about 1900000 for Ipilimumab), no plateau; no unit in the table, unit from the axis Log Antibodies [ng/ml]
T4 construct: whole, on cells; also called CHO-cynoCTLA4
T4 sequence: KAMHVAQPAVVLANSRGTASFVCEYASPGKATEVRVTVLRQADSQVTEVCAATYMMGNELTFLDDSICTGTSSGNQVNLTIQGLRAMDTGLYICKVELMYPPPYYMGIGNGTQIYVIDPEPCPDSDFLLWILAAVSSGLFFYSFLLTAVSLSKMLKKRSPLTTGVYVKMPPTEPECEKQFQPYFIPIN
Description: The amount of antibodies bound on the cells was quantified using anti-human IgG antibody conjugated to fluorophores. EC₅₀ values at pH 6.0 and 7.4 for binding to cells were calculated using the nonlinear fit (variable slope, four parameters) model built into GraphPad Prism software (version 7.03). The expression levels of human CTLA4 or cynomolgus CTLA4 on the surface of the CHO cells were determined using a BD QuantiBRITE™ PE kit.
At least two independent duplicate FACS experiments were performed for each antibody using each of the cell lines. The binding activities at different concentrations of the antibodies are plotted in these figures.

B1: BA-087-08-32 (antibody, V domains shown)
VH: EVQLVQSGAEVKKPGATVKISCKVSGFTFSHYTMHWIRQSPSRGLEWLGFISYDGNYKYYADSVKGRFTISRDNAKNSLYLQMNSLRAEDTAVYYCARTGWLGPFDYWGQGTLVTVSS
VL: EIVMTQSPATLSVSPGERATLSCRASQSVGSSYLAWYQQKPGKAPKLLIYGAFSRATGVPSRFSGSGSGTDFTLTISSLQPEDFATYYCQQDGSSPWTFGQGTKVEIK
notes: Detected with anti-human IgG and a molecular weight of 146 kDa was used in SPR, so it was tested as a whole IgG; also called BA-087-08-032; BA-087-08-32 (# 6978)
B1 was tested, and the EC50 [1] was 0.038 mg/L, the EC50 [2] was 0.0123 mg/L and the EC50 [3] was 0.145 mg/L. For the same binder, the EC50 [4] was 1.18 mg/L, the EC50 [5] was 1.54 mg/L and the EC50 [6] was 1.07 mg/L.

B2: BA-087-05-19 (antibody, V domains shown)
VH: EVQLVESGGGLVQPGGSLRLSCAASGFTFSHYTMHWVRQAPGKGLEWVSFISYDGNNKYYADSVKGRFTISRDNSKNTLYLQMNSLRAEDTAVYYCARTGWLGPFDYWGQGTLVTVSS
VL: AIQLTQSPSSLSASVGDRVTITCRASQYVGSSYLAWYLQKPGQSPQLLIYGAFSRATGIPARFSGSGSGTEFTLTISSLQSEDFAVYYCQQDGSSPWTFGQGTKVEIK
notes: Detected with anti-human IgG and a molecular weight of 146 kDa was used in SPR, so it was tested as a whole IgG; also called BA-087-05-019; BA-087-05-19 (# 6972)
In the case of B2, the “EC50 of bioluminescence (RLUs), Promega CTLA4 Blockade Assay, pH 6.0; unit from the axis Log (µg/mL)” value [7] is reported as 1.2 µg/mL, the EC50 [8] is reported as 0.0598 mg/L and the EC50 [9] is reported as 0.00704 mg/L. For the same binder, the EC50 [10] was 0.291 mg/L, the EC50 [11] was 0.0546 mg/L and the EC50 [12] was 8.28 mg/L.
